# Results as given in IntAct's records for PubMed 20819940.
# B1: High mobility group protein B1 (Rattus norvegicus (Rat)), P63159 (parent)
# chain: MGKGDPKKPRGKMSSYAFFVQTCREEHKKKHPDASVNFSEFSKKCSERWKTMSAKEKGKFEDMAKADKARYEREMKTYIPPKGETKKKFKDPNAPKRPPSAFFLFCSEYRPKIKGEHPGLSIGDVAKKLGEMWNNTAADDKQPYEKKAAKLKEKYEKDIAAYRAKGKPDAAKKGVVKAEKSKKKKEEEDDEEDEEDEEEEEEEEDEDEEEDDDDE
# Variants of: B1
# Conditions: with becn1_mouse Becn1, O88597
# Chain of becn1_mouse Becn1, O88597 (O88597 whole entry): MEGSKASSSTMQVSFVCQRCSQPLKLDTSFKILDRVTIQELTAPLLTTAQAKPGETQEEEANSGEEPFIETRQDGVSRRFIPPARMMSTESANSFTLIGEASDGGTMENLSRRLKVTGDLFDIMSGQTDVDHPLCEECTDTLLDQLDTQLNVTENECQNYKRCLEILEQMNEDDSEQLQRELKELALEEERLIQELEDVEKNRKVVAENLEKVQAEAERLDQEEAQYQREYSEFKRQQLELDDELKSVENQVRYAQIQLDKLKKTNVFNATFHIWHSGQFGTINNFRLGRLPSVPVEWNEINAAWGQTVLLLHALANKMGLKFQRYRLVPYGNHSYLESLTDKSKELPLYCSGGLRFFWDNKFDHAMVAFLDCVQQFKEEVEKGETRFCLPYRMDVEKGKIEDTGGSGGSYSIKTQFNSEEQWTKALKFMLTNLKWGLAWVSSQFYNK
row,Variant,effect of a mutation on the interaction
1,C45S,disrupting interaction
2,C23S,disrupting interaction
